# Laboratory results as given in the Human Domainome abundance scans (Beltran et al. 2025).
# ± gives the uncertainty stated by the source.
# Assay: abundance fitness (aPCA) (normalised: wild type 0, dead -1); higher = more abundant; growth selection in yeast, the domain comes from the species named
# Details: Homo sapiens
row,Substance,abundance fitness
1,"NEDD4-like E3 ubiquitin-protein ligase WWP2 T469Y, O00308",-0.264 ± 0.062
2,"NEDD4-like E3 ubiquitin-protein ligase WWP2 T470A, O00308",-0.265 ± 0.035
3,"NEDD4-like E3 ubiquitin-protein ligase WWP2 T470C, O00308",-0.164 ± 0.069
4,"NEDD4-like E3 ubiquitin-protein ligase WWP2 T470D, O00308",-0.653 ± 0.072
5,"NEDD4-like E3 ubiquitin-protein ligase WWP2 T470E, O00308",-0.218 ± 0.068
6,"NEDD4-like E3 ubiquitin-protein ligase WWP2 T470I, O00308",-0.734 ± 0.15
7,"NEDD4-like E3 ubiquitin-protein ligase WWP2 T470K, O00308",-0.356 ± 0.039
8,"NEDD4-like E3 ubiquitin-protein ligase WWP2 T470L, O00308",-0.437 ± 0.04
9,"NEDD4-like E3 ubiquitin-protein ligase WWP2 T470M, O00308",-0.398 ± 0.048
10,"NEDD4-like E3 ubiquitin-protein ligase WWP2 T470N, O00308",-0.383 ± 0.11
11,"NEDD4-like E3 ubiquitin-protein ligase WWP2 T470P, O00308",-0.906 ± 0.14
12,"NEDD4-like E3 ubiquitin-protein ligase WWP2 T470Q, O00308",-0.42 ± 0.056
13,"NEDD4-like E3 ubiquitin-protein ligase WWP2 T470R, O00308",-0.446 ± 0.044
14,"NEDD4-like E3 ubiquitin-protein ligase WWP2 T470S, O00308",-0.234 ± 0.036
15,"NEDD4-like E3 ubiquitin-protein ligase WWP2 T470V, O00308",-0.263 ± 0.046
16,"NEDD4-like E3 ubiquitin-protein ligase WWP2 T470Y, O00308",-0.772 ± 0.12
17,"NEDD4-like E3 ubiquitin-protein ligase WWP2 T471A, O00308",-0.725 ± 0.064
18,"NEDD4-like E3 ubiquitin-protein ligase WWP2 T471C, O00308",-0.59 ± 0.1
19,"NEDD4-like E3 ubiquitin-protein ligase WWP2 T471D, O00308",-0.647 ± 0.057
20,"NEDD4-like E3 ubiquitin-protein ligase WWP2 T471E, O00308",-0.975 ± 0.11
21,"NEDD4-like E3 ubiquitin-protein ligase WWP2 T471F, O00308",-0.556 ± 0.09
22,"NEDD4-like E3 ubiquitin-protein ligase WWP2 T471G, O00308",-0.673 ± 0.052

row,Substance,abundance fitness
1,"NEDD4-like E3 ubiquitin-protein ligase WWP2 T471H, O00308",-0.259 ± 0.057
2,"NEDD4-like E3 ubiquitin-protein ligase WWP2 T471I, O00308",-0.701 ± 0.05
3,"NEDD4-like E3 ubiquitin-protein ligase WWP2 T471K, O00308",-0.734 ± 0.065
4,"NEDD4-like E3 ubiquitin-protein ligase WWP2 T471L, O00308",-0.887 ± 0.043
5,"NEDD4-like E3 ubiquitin-protein ligase WWP2 T471M, O00308",-0.798 ± 0.094
6,"NEDD4-like E3 ubiquitin-protein ligase WWP2 T471N, O00308",-0.81 ± 0.12
7,"NEDD4-like E3 ubiquitin-protein ligase WWP2 T471P, O00308",-1.15 ± 0.13
8,"NEDD4-like E3 ubiquitin-protein ligase WWP2 T471Q, O00308",-0.291 ± 0.073
9,"NEDD4-like E3 ubiquitin-protein ligase WWP2 T471R, O00308",-0.62 ± 0.05
10,"NEDD4-like E3 ubiquitin-protein ligase WWP2 T471V, O00308",-0.546 ± 0.054
11,"NEDD4-like E3 ubiquitin-protein ligase WWP2 T471W, O00308",-0.521 ± 0.05
12,"NEDD4-like E3 ubiquitin-protein ligase WWP2 T471Y, O00308",-0.786 ± 0.14
13,"NEDD4-like E3 ubiquitin-protein ligase WWP2 T483A, O00308",-0.041 ± 0.034
14,"NEDD4-like E3 ubiquitin-protein ligase WWP2 T483C, O00308",-0.005 ± 0.063
15,"NEDD4-like E3 ubiquitin-protein ligase WWP2 T483D, O00308",-0.039 ± 0.06
16,"NEDD4-like E3 ubiquitin-protein ligase WWP2 T483E, O00308",-0.032 ± 0.057
17,"NEDD4-like E3 ubiquitin-protein ligase WWP2 T483F, O00308",-0.377 ± 0.072
18,"NEDD4-like E3 ubiquitin-protein ligase WWP2 T483G, O00308",-0.01 ± 0.032
19,"NEDD4-like E3 ubiquitin-protein ligase WWP2 T483I, O00308",-0.056 ± 0.038
20,"NEDD4-like E3 ubiquitin-protein ligase WWP2 T483K, O00308",0.084 ± 0.071
21,"NEDD4-like E3 ubiquitin-protein ligase WWP2 T483L, O00308",-0.039 ± 0.044
22,"NEDD4-like E3 ubiquitin-protein ligase WWP2 T483M, O00308",-0.073 ± 0.055

row,Substance,abundance fitness
1,"NEDD4-like E3 ubiquitin-protein ligase WWP2 T483N, O00308",-0.247 ± 0.076
2,"NEDD4-like E3 ubiquitin-protein ligase WWP2 T483P, O00308",-0.054 ± 0.071
3,"NEDD4-like E3 ubiquitin-protein ligase WWP2 T483Q, O00308",-0.106 ± 0.071
4,"NEDD4-like E3 ubiquitin-protein ligase WWP2 T483R, O00308",-0.121 ± 0.056
5,"NEDD4-like E3 ubiquitin-protein ligase WWP2 T483S, O00308",0.004 ± 0.042
6,"NEDD4-like E3 ubiquitin-protein ligase WWP2 T483V, O00308",-0.03 ± 0.052
7,"NEDD4-like E3 ubiquitin-protein ligase WWP2 T483W, O00308",-0.163 ± 0.063
8,"NEDD4-like E3 ubiquitin-protein ligase WWP2 T483Y, O00308",-0.123 ± 0.059
9,"NEDD4-like E3 ubiquitin-protein ligase WWP2 V459A, O00308",-0.107 ± 0.051
10,"NEDD4-like E3 ubiquitin-protein ligase WWP2 V459C, O00308",-0.11 ± 0.065
11,"NEDD4-like E3 ubiquitin-protein ligase WWP2 V459D, O00308",0.05 ± 0.062
12,"NEDD4-like E3 ubiquitin-protein ligase WWP2 V459E, O00308",0.085 ± 0.036
13,"NEDD4-like E3 ubiquitin-protein ligase WWP2 V459F, O00308",-0.387 ± 0.094
14,"NEDD4-like E3 ubiquitin-protein ligase WWP2 V459G, O00308",-0.111 ± 0.051
15,"NEDD4-like E3 ubiquitin-protein ligase WWP2 V459H, O00308",-0.103 ± 0.064
16,"NEDD4-like E3 ubiquitin-protein ligase WWP2 V459I, O00308",-0.106 ± 0.072
17,"NEDD4-like E3 ubiquitin-protein ligase WWP2 V459K, O00308",-0.077 ± 0.063
18,"NEDD4-like E3 ubiquitin-protein ligase WWP2 V459L, O00308",-0.073 ± 0.04
19,"NEDD4-like E3 ubiquitin-protein ligase WWP2 V459M, O00308",-0.07 ± 0.05
20,"NEDD4-like E3 ubiquitin-protein ligase WWP2 V459N, O00308",-0.024 ± 0.076
21,"NEDD4-like E3 ubiquitin-protein ligase WWP2 V459P, O00308",-0.878 ± 0.037
22,"NEDD4-like E3 ubiquitin-protein ligase WWP2 V459Q, O00308",-0.019 ± 0.069

row,Substance,abundance fitness
1,"NEDD4-like E3 ubiquitin-protein ligase WWP2 V459R, O00308",-0.127 ± 0.051
2,"NEDD4-like E3 ubiquitin-protein ligase WWP2 V459S, O00308",-0.097 ± 0.045
3,"NEDD4-like E3 ubiquitin-protein ligase WWP2 V459T, O00308",-0.025 ± 0.059
4,"NEDD4-like E3 ubiquitin-protein ligase WWP2 V459W, O00308",-0.18 ± 0.07
5,"NEDD4-like E3 ubiquitin-protein ligase WWP2 V459Y, O00308",-0.335 ± 0.071
6,"NEDD4-like E3 ubiquitin-protein ligase WWP2 V463A, O00308",-0.136 ± 0.036
7,"NEDD4-like E3 ubiquitin-protein ligase WWP2 V463C, O00308",-0.307 ± 0.086
8,"NEDD4-like E3 ubiquitin-protein ligase WWP2 V463E, O00308",-0.16 ± 0.056
9,"NEDD4-like E3 ubiquitin-protein ligase WWP2 V463F, O00308",-0.288 ± 0.039
10,"NEDD4-like E3 ubiquitin-protein ligase WWP2 V463G, O00308",-0.972 ± 0.039
11,"NEDD4-like E3 ubiquitin-protein ligase WWP2 V463H, O00308",-0.422 ± 0.093
12,"NEDD4-like E3 ubiquitin-protein ligase WWP2 V463I, O00308",-0.165 ± 0.072
13,"NEDD4-like E3 ubiquitin-protein ligase WWP2 V463K, O00308",-0.466 ± 0.062
14,"NEDD4-like E3 ubiquitin-protein ligase WWP2 V463L, O00308",-0.041 ± 0.035
15,"NEDD4-like E3 ubiquitin-protein ligase WWP2 V463N, O00308",-0.386 ± 0.056
16,"NEDD4-like E3 ubiquitin-protein ligase WWP2 V463P, O00308",-1.29 ± 0.47
17,"NEDD4-like E3 ubiquitin-protein ligase WWP2 V463Q, O00308",-0.129 ± 0.08
18,"NEDD4-like E3 ubiquitin-protein ligase WWP2 V463R, O00308",-0.352 ± 0.038
19,"NEDD4-like E3 ubiquitin-protein ligase WWP2 V463T, O00308",-0.209 ± 0.069
20,"NEDD4-like E3 ubiquitin-protein ligase WWP2 V463W, O00308",-0.414 ± 0.068
21,"NEDD4-like E3 ubiquitin-protein ligase WWP2 V463Y, O00308",-0.26 ± 0.076
22,"NEDD4-like E3 ubiquitin-protein ligase WWP2 W450C, O00308",-0.446 ± 0.051
